From PMC3107735

Target: bovine α-thrombin (bovine)
Test: SPR

“TMEGF56, fragment of thrombomodulin with the fifth and sixth EGF-like domains (domain or fragment)” was tested, and the Kd was 1.7 nM.
